The source of these data is patent publication US20210147877A1.

Holding throughout (assay): cell-based or functional assay
The target in test [1] is haploid virus AAV2/8 1:1 (AAV serotype 2; AAV serotype 8) (UniProt P03135).
Test [2] concerns the target AAV2 vector (parental AAV2 capsid) (AAV serotype 2) (UniProt P03135).
For test [3], the target named is haploid virus AAV2/8 3:1 (AAV serotype 2; AAV serotype 8) (UniProt P03135).
For test [4], the target named is AAV8 vector (parental AAV8 capsid) (AAV serotype 8).
In test [5] the target is haploid virus AAV2/8 1:3 (AAV serotype 2; AAV serotype 8) (UniProt P03135).

monoclonal antibody A20: the Neutralization antibody titer in test [1] is 32 titer; in test [2], 512 titer; in test [3], 2048 titer; in test [4], less than 2 titer; in test [5], less than 2 titer.
Regarding monoclonal antibody ADK8, the Neutralization antibody titer in test [1] was 512 titer; in test [2], less than 2 titer; in test [3], 512 titer; in test [4], 1024 titer; in test [5] it was 1024 titer.
